B1: Hairpin Ribozyme (parent)
chain: GUCCUCUUUCACGUGCGCGUGAAAGAGAGAAGUGAACCAGAGAAACACACGUUGUGGUAUAUUACCUGGUA

Variants of: B1
Test: self-cleavage, relative activity (ratio to wild type); higher = more cleavage; co-transcriptional

Row | Variant | self-cleavage
1 | C3G A45G | 0.118
2 | C3G A45C | 0.0981
3 | C3G C12G | 0.199
4 | C4A G56C | 0.157
5 | C3U C16G | 0.23
6 | C3U A35C | 0.802
7 | C3U A35U | 0.339
8 | C4G A47G | 0.168
9 | C4U A44U | 0.162
10 | C4U U5G | 0.343
11 | C4U U5C | 0.109
12 | C4G A49G | 0.101
13 | C4G A49U | 0.183
14 | C3G A61C | 0.168
15 | C4G C6U | 0.0456
16 | C4G C6G | 0.17
17 | C3G A64U | 0.134
18 | C3G U62C | 0.0668
19 | C4U G68A | 0.18
20 | C4U G68C | 0.0882
21 | C4A A41C | 0.322
22 | C4A A41U | 0.504
23 | C4A G17U | 0.148
24 | C3U G27U | 0.15

Row | Variant | self-cleavage
25 | C4U C10G | 0.264
26 | C3G G69A | 0.108
27 | C4U G25A | 0.129
28 | C3U U14G | 0.442
29 | C3G G68A | 0.085
30 | C3U U5A | 0.429
31 | C3G U7C | 0.372
32 | C3G C37U | 0.189
33 | C3G C37G | 0.0959
34 | C3G G13A | 0.255
35 | C3G G13C | 0.321
36 | C4U A49G | 0.0694
37 | C3A U60C | 1.07
38 | C3U A43G | 0.138
39 | C4G G40A | 0.114
40 | C3U U8A | 0.361
41 | C4G G54A | 0.144
42 | C4G G54C | 0.139
43 | C3U A45C | 0.123
44 | C3U A45G | 0.101
45 | C3U A47U | 0.208
46 | C3U A47G | 0.275
47 | C3U A47C | 0.192
48 | C4G A44G | 0.0493

Row | Variant | self-cleavage
49 | C4G A44U | 0.164
50 | C4A A31C | 0.131
51 | C4G A24C | 0.177
52 | C4G A24G | 0.256
53 | C4G A24U | 0.183
54 | C3U G29A | 0.173
55 | C4U G29U | 0.194
56 | C4U G29A | 0.107
57 | C4G G32C | 0.115
58 | C4G G32U | 0.149
59 | C4A A39U | 0.0907
60 | C3U C18G | 0.531
61 | C3U C18A | 0.641
62 | C4A U20C | 0.267
63 | C4U C12A | 0.333
64 | C3U U63C | 0.264
65 | C3U U63G | 0.12
66 | C3G U9C | 0.357
67 | C3G C16G | 0.34
68 | C4G A41G | 0.219
69 | C4G G27A | 0.325
70 | C4G G69A | 0.132
71 | C4G G69U | 0.118
72 | C4G C50A | 0.147

Row | Variant | self-cleavage
73 | C4U A22C | 0.172
74 | C4A C38A | 0.104
75 | C4A C38G | 0.175
76 | C4G A22C | 0.206
77 | C3U G21A | 0.483
78 | C4G G42U | 0.121
79 | C4G G42A | 0.194
80 | C3G A47C | 0.0701
81 | C4A U7C | 0.147
82 | C4A U7A | 0.175
83 | C3U C50A | 0.174
84 | C3U A11U | 0.32
85 | C3A U62C | 0.2
86 | C3G A36C | 0.165
87 | C3U A71U | 0.429
88 | C3U A71C | 0.962
89 | C4U C38U | 0.234
90 | C4A G29C | 0.118
91 | C4A G29U | 0.111
92 | C3U A23G | 0.325
93 | C3U A23U | 0.535
94 | C3G U8A | 0.377
95 | C4G A30C | 0.178
96 | C4G A30U | 0.175

Row | Variant | self-cleavage
97 | C4A G69C | 0.156
98 | C3G U63G | 0.18
99 | C3G U63A | 0.108
100 | C4G C37G | 0.168
101 | C4G C37A | 0.209
102 | C4A A35G | 0.33
103 | C4A A35U | 0.188
104 | C4G U70G | 0.219
105 | C4G U70A | 0.161
106 | C3U A31U | 0.102
107 | C4G G15A | 0.216
108 | C4G G15C | 0.212
109 | C4A C48A | 0.131
110 | C3G C65G | 0.0169
111 | C4G A43G | 0.121
112 | C3G G51C | 0.238
113 | C3G G51A | 0.369
114 | C4U C37U | 0.243
115 | C4A A23U | 0.251
116 | C4G C10U | 0.198
117 | C4A C46G | 0.165
118 | C4A C46U | 0.17
119 | C4A C50U | 0.13
120 | C4A C65A | 0.148

Row | Variant | self-cleavage
121 | C4U G40A | 0.147
122 | C3G A22G | 0.264
123 | C3G A26G | 0.338
124 | C4G G25A | 0.156
125 | C3G U5A | 0.15
126 | C3G U5G | 0.163
127 | C4U C18G | 0.349
128 | C4U C18U | 0.514
129 | C4U A26C | 0.144
130 | C4G A35G | 0.153
131 | C4U C48U | 0.142
132 | C4U C65A | 0.374
133 | C4U C65G | 0.0877
134 | C4U A45U | 0.0517
135 | C4U G13A | 0.238
136 | C3U C65A | 0.611
137 | C3U C65U | 0.334
138 | C3G C48U | 0.0425
139 | C4U A61U | 0.0691
140 | C4U A61G | 0.169
141 | C4U A61C | 0.294
142 | C4A U8A | 0.16
143 | C4A U8C | 0.113
144 | C4G C48U | 0.146

Row | Variant | self-cleavage
145 | C3G U60A | 0.167
146 | C3U G15U | 0.474
147 | C3U G15A | 0.416
148 | C4A A43U | 0.184
149 | C3U G25C | 0.0917
150 | C3U C38U | 0.354
151 | C4A U52A | 0.206
152 | C3U C4G | 0.235
153 | C4G U14G | 0.265
154 | C4G U14A | 0.231
155 | C4A A64U | 0.0608
156 | C4A A64C | 0.156
157 | C3U A41U | 0.917
158 | C3U C37U | 0.29
159 | C3U A26G | 0.509
160 | C4A A47C | 0.205
161 | C4A A47G | 0.188
162 | C4G C46G | 0.122
163 | C3U U20G | 0.561
164 | C4U A43U | 0.202
165 | C3U C6U | 0.347
166 | C3U C6A | 0.372
167 | C4U G19U | 0.312
